Reference: publication PMC11169541 (2024)

B1: TCR-4 (TCR)
alpha TRAV17*01 TRAJ27*01 CDR3: CATDEDTNAGKSTF
beta TRBV4-1*01 TRBJ1-1*01 CDR3: CASSPDPWGVDTEAFF
B2: TCR-2 (TCR)
alpha TRAV4*01 TRAJ34*01 CDR3: CLVGDVDTDKLIF
beta TRBV20-1*05 TRBJ1-6*01 CDR3: CSASHPGDSPLHF

Experiments:
[1] = target: T1, SARS-CoV-2 N protein (nucleocapsid) peptide on HLA-A*02:01 (human); test: multimer staining
T1 peptide: RTATKAYNV

[2] = target: T2, SARS-CoV N protein (nucleocapsid) peptide on HLA-A*02:01 (human); test: multimer staining
T2 peptide: RTATKQYNV

Binder	binding result [1]	binding result [2]
B1	recognises	no recognition
B2	recognises	no recognition
